This note sets out measurements from US20050009745A1, “TSG101 as inhibitor of HIV production” (priority 2001, published 2005).

Where no end group is shown, it is not given here.

One data set deals with HIV-1 particles. Briefly: Release of HIV-1 virus-like particles from transfected COS-1 cells, Western blot with anti-CA. The format is cell-based. (Immunoblotting shows a protein as a band on a membrane.)
Data set [1] in a line: Solubility of the peptide. The format is physicochemical. To be noted: precluded testing at higher concentrations.
Data set [2] deals with GAL4 activation domain-Tsg101 fusion protein (wild-type human Tsg101) (yeast; human) (UniProt Q99816). Briefly: cell-based or functional assay.
The target in data set [3] is GAL4 DNA-binding domain-p1-p6 fusion protein (yeast; HIV-1) (UniProt P04386). Nature of the data set: cell-based or functional assay.
The next data set concerns HIV-1 Gag. The format is cell-based.

With `CC(C)CC[C@@H](O)[C@](C)(O)[C@H]1CC[C@@]2(O)C3=CC(=O)[C@@H]4C[C@@H](O)[C@@H](O)C[C@]4(C)[C@H]3CC[C@]12C` [pa, pronasterone, reference compound], the “effect on virus particle release” value in the data set with HIV-1 particles was “no inhibitory effect”.

Consider ALQSRPEPTAPPEES, for which the “solubility of the peptide” value in data set [1] was “limited solubility”.

Consider “GAL4 DNA-binding domain-p1-p6 with both PTAPP motifs deleted (from UniProt P04386 1-147; P03347 435-512)”, for which, in data set [2], the β-galactosidase activity (yeast 2-hybrid) was below 0.3%. The molecule “GAL4 DNA-binding domain-p1-p6 with the (LXX)4 repeat motif deleted (from UniProt P04386 1-147; P03347 435-512)” gave a β-galactosidase activity (yeast 2-hybrid) (% of wild-type) in data set [2] of 55. Turning to “GAL4 DNA-binding domain-p1-p6 with the first PTAPP motif deleted (from UniProt P04386 1-147; P03347 435-512)”, in data set [2], the β-galactosidase activity (yeast 2-hybrid) (% of wild-type) came out at 50. For “GAL4 DNA-binding domain-p1-p6 with the first PTAPP motif deleted and Ala for Pro7 in the second motif (from UniProt P04386 1-147; P03347 435-512)”, the enzyme activity (β-galactosidase, yeast 2-hybrid) (% of wild-type) in data set [2] was 25.

Molecule “GAL4 DNA-binding domain-p1-p6 with the second PTAPP motif deleted (from UniProt P04386 1-147; P03347 435-512)” came in with a β-galactosidase activity (yeast 2-hybrid) (% of wild-type) in data set [2] of 25. Consider “GAL4 activation domain-Tsg101 Y110W (from UniProt P04386 768-881)”, for which, in data set [3], the 2-hybrid assay, percent of wild-type interaction (% of wild-type) came to 31.

“GAL4 activation domain-Tsg101 Y113V (from UniProt P04386 768-881)” displayed a 2-hybrid assay, percent of wild-type interaction (% of wild-type) in data set [3] of 33. Same read-out and setting: next, “GAL4 activation domain-Tsg101 with Ala for Thr67-Tyr68-Asn69 (from UniProt P04386 768-881)”: 5.

B1: pIND-h-Tsg101-FLAG: wild-type human Tsg101, FLAG-tagged, inducibly over-expressed from plasmid (protein)
chain: MAVSESQLKKMVSKYKYRDLTVRETVNVITLYKDLKPVLDSYVFNDGSSRELMNLTGTIPVPYRGNTYNIPICLWLLDTYPYNPPICFVKPTSSMTIKTGKHVDANGKIYLPYLHEWKHPQSDLLGLIQVMIVVFGDEPPVFSRPISASYPPYQATGPPNTSYMPGMPGGISPYPSGYPPNPSGYPGCPYPPGGPYPATTSSQYPSQPPVTTVGPSRDGTISEDTIRASLISAVSDKLRWRMKEEMDRAQAELNALKRTEEDLKKGHQKLEEMVTRLDQEVAEVDKNIELLKKKDEELSSALEKMENQSENNDIDEVIIPTAPLYKQILNLYAEENAIEDTIFYLGEALRRGVIDLDVFLKHVRLLSRKQFQLRALMQKARKTAGLSDLY
modifications: left off: small tags and cut ends
notes: wild-type human Tsg101, FLAG-tagged, inducibly over-expressed from plasmid
On to B1, for which, in the data set with HIV-1 particles (COS-1 cells, gagΔp6, Tsg101 overexpression, 0, 1, 5 μM pa), the “release of immature particles containing GagΔp6” value is “not significantly affected”. In the data set with HIV-1 particles (COS-1 cells, wild-type gag, 1 μM pa inducer), the “amount of mature CA in released virus, of the control (0 μM pa) level” value was around 60%. The “amount of mature CA in released virus, of the control (0 μM pa) level” value with HIV-1 particles (COS-1 cells, wild-type gag, 5 μM pa inducer) is around 30%. In the data set with HIV-1 Gag, the “viral protein in P1 fraction” value is “no detectable viral protein” and the “viral protein in S1 fraction” value is reported as “no detectable viral protein”.

B2: SD5-59 (protein)
chain: MAVSESQLKKMVSKYKYRDLTVRETVNVITLYKDLKPVLDSYVFNDGSSRELMNLTGTIPVPYRGNTYNIPICLWLLDTYPYNPPICFVKPTSSMTIKTGKHVDANGKIYLPYLHEWKHPQSDLLGLIQVMIVVFGDEPPVFSRPISASYPPYQATGPPNTSYMPGMPGGISPYPSGYPPNPSGYPGCPYPPGGPYPATTSSQYPSQPPVTTVGPSRDGTISEDTIRASLISAVSDKLRWRMKEEMDRAQAELNALKRTEEDLKKGHQKLEEMVTRLDQEVAEVDKNIELLKKKDEELSSALEKMENQSENNDIDEVIIPTAPLYKQILNLYAEENAIEDTIFYLGEGGVIDLDVFLKHVRLLSRKQFQLRALMQKARKTAGLSDLY
modifications: left off: small tags and cut ends
On to B2, for which the “Gag processing in released particles” value in the data set on HIV-1 particles (COS cells, wild-type gag, 1 and 5 μM pa) was “accumulation of particle-associated uncleaved Gag precursor”. Also, the “release of virus particles” value in the data set on HIV-1 particles (COS cells, wild-type gag, increasing expression with 1 and 5 μM pa) is given as “permitted release of virus particles”. In the data set with HIV-1 Gag, the “viral protein in P1 fraction” value is given as “no protein was found” and the “viral protein in S1 fraction” value is “detectable levels of viral protein”.
